Assay: yeast display, Sf9 membrane polyspecificity reagent, FACS + sequencing; frameworks hold sequencing errors
Outline: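 A synthetic nanobody library was expressed on Saccharomyces cerevisiae BJ5465 by galactose induction for 36–48 hours. The library was stained for 1 hour at 4 °C with 10% biotinylated, detergent-solubilized Sf9 membrane reagent and enriched with streptavidin microbeads before FACS. Low and high (top ~1%) gates were set on anti-HA fluorescence for expression and streptavidin fluorescence for reagent binding, and each polyreactivity label reflects the gate of origin.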

Sequence	polyreactivity (PSR sort gate)
QVQLVESGGGLVQAGGSLRLSCAASGRTFWWYGMGWYRQAPGKDRELVAAITNGGSTNYADSVKGRFTISRDIAKNTVYLQMNSLKPEDTAVYYCAARTRSWYGGFYKYYYWGQGTQVTVSS	high polyreactivity
QVQLVESGGGLVQAGGSLRLSCAASGRTFWYNAMGWYRPAPGKERELVAAIRGSGGSTYYADSVKGRFTISRDNAKNTVYLQLNSLKPEDTAVYYCAARGFYRRTYQYENNYWGQGTQVTVSS	high polyreactivity
QVQLVESGGGLVQAGGSLRLSCAASGRTFWYNAMGWYSPAPGKERELLAVITKSGGSTYYADSVKGRFTISRDNAKNTVYLQMNSLKPEDTAVYYCAADTYVARSNYRYRGFDYWGQGTQVTVSS	high polyreactivity
QVQLVESGGGLVQAGGSLRLSCAASGRTFWYYAMGWYRQAPGHERELVAAITGRGGRTYYADSVTGRFTISRDNAKNTVYLQMNSLKPEDTAVYYCAARLPYLGGYDYWGQGTQVTVSS	high polyreactivity
QVQLVESGGGLVQAGGSLRLSCAASGRTFWYYAMGWYRQAPGKERELVAYADSVKGRFTISRDKAKNTVYLQMNSLKPEDTAVYYCAVGPVVWFSSSLYYTEYYYWGQGTQVTVSS	low polyreactivity
QVQLVESGGGLVQAGGSLRLSCAASGRTFWYYDMGWYRQAPGKERELVATINNVGSTHYADSVKGRFTISRDNAKNNVYLQMNSLKPEDTSVYYCARASYGKMDYWGQGTQVTVSS	high polyreactivity
QVQLVESGGGLVQAGGSLRLSCAASGRTFWYYTMGWYREAPGKERELVAAINWSGGSTYYADSVKGRFTISRDNAKNTVYLQMNSLKPEDTAVYYCAARRNGYFSAARDYGGQGTQVTVSS	high polyreactivity
QVQLVESGGGLVQAGGSLRLSCAASGRTFYANAMGWYRQAPGKERELVAAISSRSGTTHYAHSVKGRFTISRDNAKNTVYLQMNSLKPEDTAVYYCAADSCDLYVWGYDHWGQGTQVTVSS	low polyreactivity
QVQLVESGGGLVQAGGSLRLSCAASGRTFYANAMGWYRQAPGKERELVASITTSGGTYYADSVKGRFTISRDNAKNTVYLQMNSLKPEDTAVYYCAADVYRSIGYDYWGQGTQVTVSS	low polyreactivity
QVQLVESGGGLVQAGGSLRLSCAASGRTFYAYAMGWYRQAPGKERELVATISSSDASTYYADSVKGRFTISRDNAKNTVNLQMNSLKPEETAVYYCNADFVRPSWARGRNNGLYYWGQGTQVTVSS	low polyreactivity
QVQLVESGGGLVQAGGSLRLSCAASGRTFYDNAMGWYRQAPGKERELVAAITKSGGRTYYADSVKGRFTISRDFAKNTVYLQMNSLKPEDTAVYYCAASWPNYLYEYWGQGTQVTVSS	high polyreactivity
QVQLVESGGGLVQAGGSLRLSCAASGRTFYDNTMGWYRQAPGKERELVAAISRGGSTYADSVEGRFTISRDNAKNTVYLQMNSLKPEDTAVYYCNKRSITTEYGYWGQGTQVTVSS	low polyreactivity
QVQLVESGGGLVQAGGSLRLSCAASGRTFYDNTMGWYRQAPGKERELVAAITRNGGSTYYADSVKGRFTISRDNAKNTVYLQMNTLKPEDTAVYYCNAELGILSGVAEGPTFREYDYWGQGTQVNVSS	low polyreactivity
QVQLVESGGGLVQAGGSLRLSCAASGRTFYDYAMGWYRQAPGKERELVASIRGSDGSTYYADSVKGRFTISRDNAKNTVYLQMNSLKPEDTEVYYCAARGFYGTNGRVYITSYYYWGQGTQVTVSS	high polyreactivity
QVQLVESGGGLVQAGGSLRLSCAASGRTFYDYTMGWYRQAPGKERELVAAISQRGGSTYYADSVKGRFTISRDNAKNTVYLQMNSLKPEDTAVYYCAARTSYSGNKYYYWGQGTQVTVSS	high polyreactivity
QVQLVESGGGLVQAGGSLRLSCAASGRTFYEYAMGWYRQAPGKERELVAAITIDGSTNYADSVKGRFTISRDNAKNTVYLQMNSLKPEDTAVYYCNARYLLYHGQHYRPYNYWGQGTQVTVSS	high polyreactivity
QVQLVESGGGLVQAGGSLRLSCAASGRTFYEYTMGWYRQAPGKERELVAAITWSVGSTYYADSVKGRFTISRDNAKNTVYLQMNSLKPEDTAVYYCAAYYYVWYYYWGQGTQVTVSS	low polyreactivity
QVQLVESGGGLVQAGGSLRLSCAASGRTFYFNAMRWYRQAPGKERELVAGISGDGSTNYADSVKGRFTISRDNAKNTVYLQMNSLKPEDTAVYYCAARIRPGYRTWYYSWGQGTQVTVSS	low polyreactivity
QVQLVESGGGLVQAGGSLRLSCAASGRTFYFNSMGWYRQAPGKERELVASISYGSNTNYADSVKGRFTISRDNAKNTVYLQMNSLKPEDTAVYYCAVRWVYRTYSWGARYGRYDYWGQGTQVTVSS	high polyreactivity
QVQLVESGGGLVQAGGSLRLSCAASGRTFYFNTMGWYRQAPGKERELVATISWSGGRTYYADSVKGRFTISRDNAKNTVYLQMNSLKPEDTAVYYCAAVRYRGFDYWGQGTQVTVSS	high polyreactivity
QVQLVESGGGLVQAGGSLRLSCAASGRTFYFYAMGWYRHAPGKERELVAAITSGGGRTNYADSVKGRFTISRDNAKNTVYLQMNSLKPEDTSVYYCAAVLYGQYTGKYYFWGQGTQVTVSS	high polyreactivity
QVQLVESGGGLVQAGGSLRLSCAASGRTFYFYAMGWYRQAPGKERELVAAITFSGGSTYYADSVKGRFTISRDNAKNTVYLQMNSLKPEDTAVYYCIAVSTYKREYWGQGTQVTVSS	low polyreactivity

Sequence	polyreactivity (PSR sort gate)
QVQLVESGGGLVQAGGSLRLSCAASGRTFYFYAMGWYRQAPGKERELVAAITWSDGTTYYADSVKGRFTISRDNAKNTVYLHMNSLKPEDTAVYYCAARVRIYGRRYNYWGQGTQVTVSS	high polyreactivity
QVQLVESGGGLVQAGGSLRLSCAASGRTFYFYAMGWYRQAPGKERELVASITSSGGNTYYADSVKGRVTISRDNAKNTVYLQMNSLKPEDTAVYYCAARWFPWLQWKRYDYWGQGTQVTVSS	low polyreactivity
QVQLVESGGGLVQAGGSLRLSCAASGRTFYFYAMGWYRQAPGKEWELVAAISWSGGRTYYADSVKGRFTISRDNAKNTVYLQMNSLNPEDTAVYYCAAEYRWSVGYWRYGLDDYWGQGTQVTVSS	high polyreactivity
QVQLVESGGGLVQAGGSLRLSCAASGRTFYFYTKGWYRQAPGKERELVATAITSGGSTNYADSVKGRFTISRDNAKNTVYLQMNSLKPEDTAVYYCNARYTYLWSSLYYWGQGTQVTVSS	low polyreactivity
QVQLVESGGGLVQAGGSLRLSCAASGRTFYFYTLGWYRQAPGKERELVAAISWSGGSTYSADSVKGRFTISRDNAKNTVYLQLNSLKPEDTAVYYCAASSPWEQSNDQFYYWGQGTQVTVSS	low polyreactivity
QVQLVESGGGLVQAGGSLRLSCAASGRTFYGNAMGWYRQAPGTEREFVAAITRSGGTTYYADSVKGRFTISRDNAKNTVYLQMNSLKPEDTAVYYCARSYGWYRWAGYDYWGQGTQVTVSS	high polyreactivity
QVQLVESGGGLVQAGGSLRLSCAASGRTFYGNVMGWYRQAPGKEREWVAVISWSSGSTSYADSVKGRFTISRDNAKNTVYLQMNSLKPEDTAVYYCAGTTRPPRYRQYDSDYYYWGQGTQVTVSS	low polyreactivity
QVQLVESGGGLVQAGGSLRLSCAASGRTFYGYAMGWSRQAPGKERELVAAISVSGGGTYYADSVKGRFTISRDNAKYTVYLQMNSLKPEDTAVYYCAAAVYERPRDYYYWGQGTQVTVSS	low polyreactivity
QVQLVESGGGLVQAGGSLRLSCAASGRTFYGYAMGWYRQAPGKERELVAAISRRGGSTNYADSVKGRFTLSRDNAKNTVYLQMNSLKPEDTAVYYCNVAFRIPYRMDYWGQGTQVTVSS	high polyreactivity
QVQLVESGGGLVQAGGSLRLSCAASGRTFYGYAMGWYRQAPGKERELVAAISWTGGRTYYADSVKGRFTISRDNAKNTVYLQMNSLKPEDTAVYYCNARRRGDSGDGYIYGYWGQGTQVTVSS	high polyreactivity
QVQLVESGGGLVQAGGSLRLSCAASGRTFYGYAMGWYRQAPGKERELVASIDGGGRTYYADSVKGRFTISRDNAKNTVYLQMNSLKPEYNGVYYCAKRSYQYGYPDGYGYWGQGTQVTVSS	low polyreactivity
QVQLVESGGGLVQAGGSLRLSCAASGRTFYGYAMGWYRQAPGKERELVATISWSGGRTNYADSVKGRFTISRDNAKNTVYLQMNSLKPEDTAVYYCAAPYRLSKYDYWGQGTEVTVSS	high polyreactivity
QVQLVESGGGLVQAGGSLRLSCAASGRTFYGYAMGWYRQAPGKERELVATITSGGSTKYADSVKGRFTISRDNAKNTVYLQMNSLKPEDTAVYYCAARTGGHRGYDYWGQGTQVTVSS	low polyreactivity
QVQLVESGGGLVQAGGSLRLSCAASGRTFYGYGMGWYRQAPGKERELVAGISGRGTRTYYADSVKGRFTISRDNAKNTVYLQMNSLKPEDTAVYYCNAVSIGYYSQSLGLDYWGQGTQVTVSS	high polyreactivity
QVQLVESGGGLVQAGGSLRLSCAASGRTFYGYVMGWYRQAPGKERELVAAISRSVGSTYYADSVKGRFTISRDNAKNTVYLQMNSLKPEDTAVYYCATSVYGGVDYWGQGTQVTVSS	high polyreactivity
QVQLVESGGGLVQAGGSLRLSCAASGRTFYGYVMGWYRQAPGKERELVAAISSGGNTKYADSVKGRFTISRDNAKNTVYLQMNSLKPEDTAVYYCAAGSSVTPYRYYYWGQGTQVTVSS	high polyreactivity
QVQLVESGGGLVQAGGSLRLSCAASGRTFYHNAMGWYRQAPGKERELVAAITSSGGRTYYADSVKGRFTISRDNAKNTVYLQMNSLKPEDTAVYYCNARYLGGQVRYWYYNKYDYWGQGTQVTVSS	high polyreactivity
QVQLVESGGGLVQAGGSLRLSCAASGRTFYHYAMGWYRQAPGKERELVAGITGRGRSTYYADSVKGRFTISRDNAKNTVYLQMNSLKPEDTAVYYCAAARLYSGAASDYGYWGQGTQVTVSS	high polyreactivity
QVQLVESGGGLVQAGGSLRLSCAASGRTFYHYTMGWYRQAPGKARELVAAITSGGSTYYADSVKGRFTISRDYAKNTVYLQMNSLKPEDTAVYYCARVRPLYHFSRYDDCGQGTQVTVSS	high polyreactivity
QVQLVESGGGLVQAGGSLRLSCAASGRTFYINAMGWSRQAPGKERELVAAITWSGGRTYYADSVKGRFTISRDNAKNTVYLQMNSLKPEDTAVYYCAVGYVYTRKGRVQPVKYDYWGQGTQVTVSS	high polyreactivity
QVQLVESGGGLVQAGGSLRLSCAASGRTFYINAMGWYRQAPGKERELVATISRSGGDTYYADSVKGRFTISRDNAKNTVYLQMNSLKPEDTAVYYCYARQYYYRSGAYASRYLYNYWGQGTQVTVSS	high polyreactivity

From the nanobody polyreactivity screen of Harvey et al. (2022)
